Results taken from PMC4132694 (Cellular signalling, 2013).

B1: GST-JNK1 (human JNK1α1) (enzyme, UniProt P45983-2 1-384, looked up)
chain: MSRSKRDNNFYSVEIGDSTFTVLKRYQNLKPIGSGAQGIVCAAYDAILERNVAIKKLSRPFQNQTHAKRAYRELVLMKCVNHKNIIGLLNVFTPQKSLEEFQDVYIVMELMDANLCQVIQMELDHERMSYLLYQMLCGIKHLHSAGIIHRDLKPSNIVVKSDCTLKILDFGLARTAGTSFMMTPYVVTRYYRAPEVILGMGYKENVDLWSVGCIMGEMVCHKILFPGRDYIDQWNKVIEQLGTPCPEFMKKLQPTVRTYVENRPKYAGYSFEKLFPDVLFPADSEHNKLKASQARDLLSKMLVIDASKRISVDEALQHPYINVWYDPSEAEAPPPKIPDKQLDEREHTIEEWKELIYKEVMDLEERTKNGVIRGQPSPLAQVQQ
B2: GST-JNK3 (human JNK3α1) (enzyme, UniProt P53779-2 1-422, looked up)
chain: MSLHFLYYCSEPTLDVKIAFCQGFDKQVDVSYIAKHYNMSKSKVDNQFYSVEVGDSTFTVLKRYQNLKPIGSGAQGIVCAAYDAVLDRNVAIKKLSRPFQNQTHAKRAYRELVLMKCVNHKNIISLLNVFTPQKTLEEFQDVYLVMELMDANLCQVIQMELDHERMSYLLYQMLCGIKHLHSAGIIHRDLKPSNIVVKSDCTLKILDFGLARTAGTSFMMTPYVVTRYYRAPEVILGMGYKENVDIWSVGCIMGEMVRHKILFPGRDYIDQWNKVIEQLGTPCPEFMKKLQPTVRNYVENRPKYAGLTFPKLFPDSLFPADSEHNKLKASQARDLLSKMLVIDPAKRISVDDALQHPYINVWYDPAEVEAPPPQIYDKQLDEREHTIEEWKELIYKEVMNSEEKTKNGVVKGQPSPSAQVQQ
B3: full-length wild-type (WT) SMTNL2 (Smoothelin-like 2), [35S]-labeled (natural protein, human, UniProt Q2TAL5-1 1-461, looked up)
chain: MEPAPDAQEARTVREALGRYEAALEGAVRALHEDMRGLQRGVERRVAEAMRLAGPLARTVADLQRDNQRLQAQLERLTRQVEALGLASGMSPVPGTPGTPSPPPAPGVPDRAPRLGSARFASHATFSLSGRGQSLDHDEASESEMRKTSNSCIMENGHQPGAGPGDGPPEIAQNFSAPDPPRPRPVSLSLRLPHQPVTAITRVSDRFSGETSAAALSPMSAATLGGLNPSPSEVITPWTPSPSEKNSSFTWSVPSSGYGAVTASKHSNSPPLVTPPQSPVSPQPPAITQVHRQGERRRELVRSQTLPRTSEAQARKALFEKWEQETAAGKGKGEARARLKRSQSFGVASASSIKQILLEWCRSKTLGYQHVDLQNFSSSWSDGMAFCALVHSFFPDAFDYNSLSPTQRQKNFELAFTMAENLANCERLIEVEDMMVMGRKPDPMCVFTYVQSLYNHLRRFE
modifications: [35S]-methionine label

Legend:
Experiment in all cases: pull-down
[1] = target: B3
GST-JNK2 (human JNK2α2) = GST-JNK2 (human JNK2α2) (human, UniProt P45984-1 1-424)
GST-JNK3 (human JNK3α1) = target: B2
GST-JNK1 (human JNK1α1) = target: B1

Binder	Kd [1] [µM]	percent of input bound (GST-JNK2 (human JNK2α2))	percent of input bound (GST-JNK3 (human JNK3α1))	percent of input bound (GST-JNK1 (human JNK1α1))
B1	~50			
B2	~4			
B3		65 % of input	50 % of input	8 % of input
